{
  "source": "paper PMC4102245",
  "about": "“A molecular model for the role of SYCP3 in meiotic chromosome organisation” (eLife, 2014)",
  "binders": {"B1": {"name": "60 bp FAM-dsDNA (dsDNA)", "DNA 1": "ATGGTGTGTGTAGGTTAATGTGAGGAGGAGAGGTGAAGAAGGAGGAGAGAAGAAGGAGGC", "DNA 2": "GCCTCCTTCTTCTCTCCTCCTTCTTCACCTCTCCTCCTCACATTAACCTACACACACCAT"}},
  "target": "T1, SYCP3 dCt6 dBP1+2 (human, UniProt Q8IZU3 1-230, K52A;R53A;R54A;K55A;K56A;R57A;K88A;R89A;K90A;R91A)",
  "T1 sequence": "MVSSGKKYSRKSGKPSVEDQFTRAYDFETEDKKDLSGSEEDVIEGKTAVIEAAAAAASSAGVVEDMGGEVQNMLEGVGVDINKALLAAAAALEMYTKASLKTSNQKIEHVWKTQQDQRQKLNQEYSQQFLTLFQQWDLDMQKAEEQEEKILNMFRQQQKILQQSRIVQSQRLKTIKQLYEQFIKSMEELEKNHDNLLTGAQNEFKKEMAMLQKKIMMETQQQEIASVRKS",
  "test": "fluorescence anisotropy; up to 20 uM protein; 20 mM Tris pH 8.0, 150 mM KCl; FA at 25 C with 25 nM DNA (0-20 uM protein); EMSA 5 min at 4 C with 18.7 uM (per bp) DNA (0-40 uM protein), 0.5% agarose, 0.5x TBE",
  "conditions": "protein: recombinant; tags: N-terminal His6, TEV-cleaved; chain copies: 4; label: 5' FAM",
  "data": [
    {"binder": "B1", "values": [
      {"measurement": "binding result", "value": "no binding"}
    ]}
  ]
}
